# Source: paper PMC2119884
# Where “and” joins values, the source holds several entries; their conditions need not be identical. Equal values may be shown once. Read-outs that look alike come from different tables or passages of the source.
# What was measured:
# [1] = molecular target: L266D mutant yeast actin (S. cerevisiae) (UniProt P60010); assay: light scattering
# [2] = molecular target: L266D mutant yeast actin (S. cerevisiae) (UniProt P60010); assay: sedimentation of F-actin
# [3] = molecular target: L266D mutant yeast actin (S. cerevisiae) (UniProt P60010); assay: light scattering; remark: listed apart in the source
# [4] = molecular target: L266D mutant yeast actin (S. cerevisiae) (UniProt P60010); assay: light scattering; remark: listed apart in the source
# [5] = molecular target: L266D mutant yeast actin (S. cerevisiae) (UniProt P60010); assay: sedimentation of F-actin; remark: listed apart in the source
# [6] = molecular target: L266D mutant yeast actin (S. cerevisiae) (UniProt P60010); assay: sedimentation of F-actin; remark: listed apart in the source
# [7] = molecular target: L266D mutant yeast actin (S. cerevisiae) (UniProt P60010); assay: light scattering; remark: listed apart in the source
substance,measurement,setting,value
L266D mutant yeast actin (from UniProt P60010 1-375) (natural protein),critical concentration (Cc) for polymerization,[1],11 µM
same,actin remaining in the supernate (starting concentration 70 µM),[2],4.6 µM
same,"elongation rate, times slower than wild-type actin",[3],2 times and 3 times
same,critical concentration (Cc) for polymerization,[4],1.2 µM
same,"elongation rate, times slower than wild-type actin",[4],2 times and 3 times
same,actin remaining in the supernate (starting concentration 70 µM),[5],46.5 µM
same,actin remaining in the supernate (starting concentration 70 µM),[6],11.6 µM
same,critical concentration (Cc) for polymerization,[7],6.5 µM
